The source of these data is US20230053603A1 (ADC THERAPEUTICS, published 2023).

One experiment concerns the target T1, rat Dlk-1 (rat, UniProt O70534 24-306, limits assumed).
T1 sequence (looked up): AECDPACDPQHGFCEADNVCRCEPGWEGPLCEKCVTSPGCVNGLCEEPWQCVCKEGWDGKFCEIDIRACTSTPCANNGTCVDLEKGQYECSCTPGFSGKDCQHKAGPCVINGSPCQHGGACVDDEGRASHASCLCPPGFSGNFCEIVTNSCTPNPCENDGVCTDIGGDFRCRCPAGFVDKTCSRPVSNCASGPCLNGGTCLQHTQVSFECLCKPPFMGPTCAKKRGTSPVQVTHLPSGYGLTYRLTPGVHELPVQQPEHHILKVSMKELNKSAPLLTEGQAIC
Briefly: not described (stated in the heading of the rat toxicology study).

The target of experiment [1] is T2, Human KAAG1 (Kidney associated antigen 1) (human, UniProt Q9UBP8 1-84).
T2 sequence: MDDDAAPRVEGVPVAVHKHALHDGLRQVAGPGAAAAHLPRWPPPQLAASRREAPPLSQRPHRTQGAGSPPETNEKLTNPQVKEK
Description: cell-based or functional assay.

B1: ConjA1 (anti-DLK1 antibody HuBa-1-3d conjugated to drug linker 4) (antibody, V domains shown)
VH: QVQLVQSGAEVKKPGASVKVSCKGSGYTFTDYAMHWVRQAPGQGLEWIGVISTYYGNTNYNQKFKGKATMTVDKSTSTAYMELRSLRSDDTAVYYCARGGLREYYYAMDYWGQGTMVTVSS
VL: DIVMTQSPDSLAVSLGERATINCKSSQSLLNSSNQKNYLAWYQQKPGQPPKLLVYFASTRESGVPDRFSGSGSGTDFTLTISSLQAEDVAVYYCQQHYSTPPTFGQGTKLEIKR
modifications: PBD drug linker 4 (PL1601) attached through the remodelled glycan (GalNAc-N3) on Asn297; average DAR of 1.87
notes: also called anti-DLK1 ADC; ADC
As to B1, the binding result with rat Dlk-1 was “no binding”.

B2: ConjA2 (anti-KAAG1 antibody 3A4 conjugated to drug linker 4 / PL1601) (antibody, human IgG1, kappa, V domains shown)
VH: QIQLVQSGAEVKKPGASVKVSCKASGYTFTDDYMSWVKQAPGQGLEWIGDINPYNGDTNYNQKFKGKATLTVDKSTSTAYMELSSLRSEDTAVYYCARDPGAMDYWGQGTLVTVSS
VL: DIVMTQTPLSLPVTPGEPASISCRSSQSLLHSNGNTYLEWYLQKPGQSPQLLIYTVSNRFSGVPDRFSGSGSGTDFTLKISRVEAEDVGVYYCFQGSHVPLTFGQGTKLEIKR
modifications: PBD drug linker PL1601 (4) attached through the remodelled glycan (GalNAc-N3) on Asn297; average DAR of 1.9
As to B2, in experiment [1], the “EC50, in vitro cytotoxicity (CellTiter-Glo) on MDA-MB-231 cells” value is 0.226 µg/mL and the “EC50, in vitro cytotoxicity (CellTiter-Glo) on SN12C cells” value was 0.0663 µg/mL.
